Experimental data published in patent US20160002355A1 (Genentech, published 2016).

Tests used:
[1] = target: T1, anti-gH antibody (anti-HCMV antibody); assay: preliminary anti-HCMV human PK ELISA, anti-ID coat 1 ug/mL, anti-gH in 1% NHS, HRP-sheep anti-huIgG
T1 construct: Anti-HCMV monoclonal antibody with a human IgG Fc (detected with anti-human IgG Fc)
Procedure: The assay was carried out as follows: microtiter ELISA plates were coated with anti-idiotypic monoclonal antibodies at 1 μg/mL in PBS overnight. Anti-CI and anti-gH were diluted in 1% NHS and added to the wells, being subsequently detected with 50 ng/mL (in-well concentration) of HRP-Sheep anti-huIgG.

[2] = target: T1, anti-gH antibody (anti-HCMV antibody); assay: Biacore
[3] = target: T2, anti-Complex I antibody (anti-HCMV antibody); assay: anti-CI clinical PK ELISA; coat 4.25B10.15 1 ug/mL; 8G8 1 ug/mL; against unspiked human serum
T2 construct: also called anti-CI; anti-CI antibody
T2 sequence (VH, as listed by the source, chain 1 of 2): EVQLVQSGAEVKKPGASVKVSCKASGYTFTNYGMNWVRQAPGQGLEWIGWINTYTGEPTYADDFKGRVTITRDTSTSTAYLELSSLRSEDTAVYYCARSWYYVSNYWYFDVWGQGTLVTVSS
T2 sequence (VL, as listed by the source, chain 2 of 2): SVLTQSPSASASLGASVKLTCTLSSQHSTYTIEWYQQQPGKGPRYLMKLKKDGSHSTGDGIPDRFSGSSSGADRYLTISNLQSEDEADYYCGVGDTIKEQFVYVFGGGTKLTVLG
Procedure: (§1) The plates are washed three times with 400 μl per well per cycle of wash buffer. 200 μl per well of blocking buffer (PBS/0.5% BSA/0.05% polysorbate 20/0.05% ProClin 300, pH 7.4±0.1) is added, and the plates are incubated at room temperature with shaking for 1-3 hours. Standard curves are prepared with standard/sample diluent (assay diluent with 0.5% normal pooled human serum; assay diluent is composed of PBS/0.5% BSA/0.05% polysorbate-20/0.35 M NaCl/0.25% CHAPS/5mM EDTA/0.05% ProClin 300, pH 7.4±0.1). The plates are washed three times with 400 μl per well per cycle of wash buffer. Diluted standards, controls and samples are added to plates at 100 μl per well, in duplicate. The plates are incubated at room temperature with shaking for 2 hours +10 minutes. The plates arc washed four times with 400 μl per well per cycle of wash buffer. HRP conjugates diluted in conjugate buffer (PBS/0.5% BSA/0.05% polysorbate 20/0.05% ProClin 300, pH 7.4±0.1) are added at 100 μl per well. The plates are incubated at room temperature with shaking for 1 hour±5 minutes, following which the plates are washed four times with 400 μl per well per cycle of wash buffer. […] The plates are read using a 450 nm read wavelength and a 620 or 630 nm reference wavelength. […]

[4] = target: T2, anti-Complex I antibody (anti-HCMV …); assay: anti-CI clinical PK ELISA; coat 4.25B10.15 0.5 ug/mL; 8G8 0.125 ug/mL; against unspiked human serum
Procedure: as §1

[5] = target: T2, anti-Complex I antibody (anti-HCMV …); assay: anti-CI clinical PK ELISA; coat 4.25B10.15 0.75 ug/mL; 8G8 4 ug/mL; against unspiked human serum
Procedure: (§2) Microtiter plates are coated overnight at 2-8° C. with 100 μl per well of 0.75 μg/ml anti-CI idiotypic antibody (in 0.05 M sodium carbonate buffer, pH 9.6±0.1). The plates are washed three times with 400 μl per well per cycle of wash buffer. 200 μl per well of blocking buffer (PBS/0.5% BSA/0.05% polysorbate 20/0.05% ProClin 300, pH 7.4±0.1) is added, and the plates are incubated at room temperature with shaking for 1-3 hours. Standard curves are prepared with standard/sample diluent (assay diluent with 0.5% normal pooled human serum; assay diluent is composed of PBS/0.5% BSA/0.05% polysorbate-20/0.35 M NaCl/0.25% CHAPS/5mM EDTA/0.05% ProClin 300, pH 7.4±0.1). The plates are washed three times with 400 μl per well per cycle of wash buffer. Diluted standards, controls and samples are added to plates at 100 μl per well, in duplicate. The plates are incubated at room temperature with shaking for 2 hours +10 minutes. The plates arc washed four times with 400 μl per well per cycle of wash buffer. HRP conjugates diluted in conjugate buffer (PBS/0.5% BSA/0.05% polysorbate 20/0.05% ProClin 300, pH 7.4±0.1) are added at 100 μl per well. […] The plates are read using a 450 nm read wavelength and a 620 or 630 nm reference wavelength. […]

[6] = target: T2, anti-Complex I antibody (anti-HCMV …); assay: anti-CI clinical PK ELISA standard curve; anti-CI 20 ug/mL in 0.5% human serum pool; against background
Procedure: as §2

[7] = target: T2, anti-Complex I antibody (anti-HCMV …); assay: anti-CI clinical PK ELISA standard curve; anti-CI 0.156 ug/mL in 0.5% human serum pool; against background
Procedure: as §2

[8] = target: T2, anti-Complex I antibody (anti-HCMV …); assay: anti-CI clinical PK ELISA standard curve; anti-CI 2.5 ug/mL in 0.5% human serum pool; against background
Procedure: as §2

[9] = target: T2, anti-Complex I antibody (anti-HCMV …); assay: anti-CI clinical PK ELISA standard curve; anti-CI 5 ug/mL in 0.5% human serum pool; against background
Procedure: as §2

[10] = target: T2, anti-Complex I antibody (anti-HCMV …); assay: anti-CI clinical PK ELISA; coat 4.25B10.15 0.5 ug/mL; 8G8 16 ug/mL; against unspiked human serum
Procedure: as §1

[11] = target: T2, anti-Complex I antibody (anti-HCMV …); assay: anti-CI clinical PK ELISA; coat 4.25B10.15 0.5 ug/mL; 8G8 0.5 ug/mL; against unspiked human serum
Procedure: as §1

[12] = target: T2, anti-Complex I antibody (anti-HCMV …); assay: anti-CI clinical PK ELISA; coat 4.25B10.15 0.75 ug/mL; 8G8 1 ug/mL; against unspiked human serum
Procedure: as §2

[13] = target: T2, anti-Complex I antibody (anti-HCMV …); assay: anti-CI clinical PK ELISA; coat 4.25B10.15 0.75 ug/mL; 8G8 0.125 ug/mL; against unspiked human serum
Procedure: as §2

[14] = target: T2, anti-Complex I antibody (anti-HCMV …); assay: anti-CI clinical PK ELISA; coat 4.25B10.15 0.75 ug/mL; 8G8 0.5 ug/mL; against unspiked human serum
Procedure: as §2

[15] = target: T2, anti-Complex I antibody (anti-HCMV …); assay: anti-CI clinical PK ELISA standard curve; anti-CI 0.313 ug/mL in 0.5% human serum pool; against background
Procedure: as §2

[16] = target: T2, anti-Complex I antibody (anti-HCMV …); assay: anti-CI clinical PK ELISA; coat 4.25B10.15 1 ug/mL; 8G8 4 ug/mL; against unspiked human serum
Procedure: as §1

[17] = target: T2, anti-Complex I antibody (anti-HCMV …); assay: anti-CI clinical PK ELISA; coat 4.25B10.15 1 ug/mL; 8G8 16 ug/mL; against unspiked human serum
Procedure: as §1

[18] = target: T2, anti-Complex I antibody (anti-HCMV …); assay: anti-CI clinical PK ELISA standard curve; anti-CI 10 ug/mL in 0.5% human serum pool; against background
Procedure: as §2

[19] = target: T2, anti-Complex I antibody (anti-HCMV …); assay: anti-CI clinical PK ELISA; coat 4.25B10.15 1 ug/mL; 8G8 8 ug/mL; against unspiked human serum
Procedure: as §1

[20] = target: T2, anti-Complex I antibody (anti-HCMV …); assay: anti-CI clinical PK ELISA; coat 4.25B10.15 0.5 ug/mL; 8G8 0.25 ug/mL; against unspiked human serum
Procedure: as §1

[21] = target: T2, anti-Complex I antibody (anti-HCMV …); assay: anti-CI clinical PK ELISA standard curve; anti-CI 1.25 ug/mL in 0.5% human serum pool; against background
Procedure: as §2

[22] = target: T2, anti-Complex I antibody (anti-HCMV …); assay: anti-CI clinical PK ELISA; coat 4.25B10.15 1 ug/mL; 8G8 0.25 ug/mL; against unspiked human serum
Procedure: as §1

[23] = target: T2, anti-Complex I antibody (anti-HCMV …); assay: anti-CI clinical PK ELISA standard curve; anti-CI 0.625 ug/mL in 0.5% human serum pool; against background
Procedure: as §2

[24] = target: T2, anti-Complex I antibody (anti-HCMV …); assay: anti-CI clinical PK ELISA; coat 4.25B10.15 0.5 ug/mL; 8G8 8 ug/mL; against unspiked human serum
Procedure: as §1

[25] = target: T2, anti-Complex I antibody (anti-HCMV …); assay: anti-CI clinical PK ELISA; coat 4.25B10.15 0.75 ug/mL; 8G8 8 ug/mL; against unspiked human serum
Procedure: as §2

[26] = target: T2, anti-Complex I antibody (anti-HCMV …); assay: Biacore
[27] = target: T2, anti-Complex I antibody (anti-HCMV …); assay: anti-CI clinical PK ELISA; coat 4.25B10.15 1 ug/mL; 8G8 0.125 ug/mL; against unspiked human serum
Procedure: as §1

[28] = target: T2, anti-Complex I antibody (anti-HCMV …); assay: anti-CI clinical PK ELISA; coat 4.25B10.15 0.75 ug/mL; 8G8 16 ug/mL; against unspiked human serum
Procedure: as §2

[29] = target: T2, anti-Complex I antibody (anti-HCMV …); assay: anti-CI clinical PK ELISA; coat 4.25B10.15 1 ug/mL; 8G8 0.5 ug/mL; against unspiked human serum
Procedure: as §1

[30] = target: T2, anti-Complex I antibody (anti-HCMV …); assay: anti-CI clinical PK ELISA; coat 4.25B10.15 0.75 ug/mL; 8G8 0.25 ug/mL; against unspiked human serum
Procedure: as §2

[31] = target: T2, anti-Complex I antibody (anti-HCMV …); assay: anti-CI clinical PK ELISA; coat 4.25B10.15 0.5 ug/mL; 8G8 1 ug/mL; against unspiked human serum
Procedure: as §1

[32] = target: T2, anti-Complex I antibody (anti-HCMV …); assay: anti-CI clinical PK ELISA; coat 4.25B10.15 0.5 ug/mL; 8G8 4 ug/mL; against unspiked human serum
Procedure: as §1

T1 sequence (VH, as listed by the source, chain 1 of 2): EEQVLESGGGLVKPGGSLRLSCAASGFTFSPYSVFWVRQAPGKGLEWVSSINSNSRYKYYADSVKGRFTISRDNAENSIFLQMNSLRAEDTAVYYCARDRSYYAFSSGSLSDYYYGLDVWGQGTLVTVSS
T1 sequence (VL, as listed by the source, chain 2 of 2): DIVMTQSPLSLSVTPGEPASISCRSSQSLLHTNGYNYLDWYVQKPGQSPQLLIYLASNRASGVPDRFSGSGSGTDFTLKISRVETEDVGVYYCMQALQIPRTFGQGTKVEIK

B1: murine mAb 1.9E1.1 (antibody, IgG1, V domains shown)
VH: QVQLQQSGAELVMPGASVKMSCKASGYTFTDYWMYWVNQRPGQGLEWIGAIDTSDSYTTYNQNFKGKATLTVDESSSTAYMQLNSLTSEDSAVYYCARSGFPLFYYPMDYWGQGTSVTVSS
VL: QAVVTQESALTTSPGETVTLTCRSSTGAVTTSNYANWVQEKPDHLFTGLIGGTVNRAPGVPARFSGSLIGDKAALTITGAQTEDEAVYFCALWYSNHLVFGGGTKLTVL
notes: Used biotin-conjugated in the clinical PK ELISA and the LC-MS/MS capture; also called anti-gH idiotypic antibody; anti-gH anti-ID mAb
fold of OD in the presence of anti-gH over OD in the absence of anti-gH [1]: > 2 fold | Kd [2]: 0.1 nM

B2: murine mAb 4.25B10.15 (antibody, IgG1, V domains shown)
VH: QVQLQQSGAELVRPGTSVKVSCKASGYAFTNYLIEWVKQRPGQGLEWIGVINPGSGGTNYNEKFEAKATLTADKSSSTAYMQLSSLTSDDSAVYFCARHGSSYWYFDVWGAGTTVTVSS
VL: DIVMTQSPATLSVTPGDRVSLSCRASQSISDYLHWYQQKSHESPRLLIKYASQSISGIPSRFSGSGSGSDFTLSINSVEPEDVGVYYCQNGHSFPYTFGGGTKLEIK
notes: also called anti-CI idiotypic antibody; anti-CI anti-ID mAb
Signal/bkgd ratio [3]: 4.4 ratio | Signal/bkgd ratio [4]: 1.4 ratio | Signal/bkgd ratio [5]: 13.3 ratio | S/B ratio [6]: 22.3 ratio | S/B ratio [7]: 1.5 ratio | S/B ratio [8]: 8.4 ratio | S/B ratio [9]: 13.6 ratio | Signal/bkgd ratio [10]: 14.7 ratio | Signal/bkgd ratio [11]: 2.7 ratio | Signal/bkgd ratio [12]: 5.3 ratio | Signal/bkgd ratio [13]: 1.5 ratio | Signal/bkgd ratio [14]: 3.2 ratio | S/B ratio [15]: 2 ratio | Signal/bkgd ratio [16]: 10 ratio | Signal/bkgd ratio [17]: 13.8 ratio | S/B ratio [18]: 19.6 ratio | Signal/bkgd ratio [19]: 13 ratio | Signal/bkgd ratio [20]: 1.8 ratio | S/B ratio [21]: 4.9 ratio | Signal/bkgd ratio [22]: 1.9 ratio | S/B ratio [23]: 3 ratio | Signal/bkgd ratio [24]: 12.3 ratio | Signal/bkgd ratio [25]: 16.5 ratio | Kd [26]: 4.7 nM | Signal/bkgd ratio [27]: 1.4 ratio | Signal/bkgd ratio [28]: 19.1 ratio | Signal/bkgd ratio [29]: 2.7 ratio | Signal/bkgd ratio [30]: 2.1 ratio | Signal/bkgd ratio [31]: 4.3 ratio | Signal/bkgd ratio [32]: 10.4 ratio
